Measurements reported in patent US6051418.

Legend:
[1] = biological target: Factor VIII dB695-HCII (human)
[2] = biological target: Factor VIII obtained from plasma
[3] = biological target: Factor VIII dB695 (human) (UniProt P00451)

second order rate constant of activation by thrombin (M^-1 s^-1 × 10^-6) [1]: 2.32e-05 M⁻¹ s⁻¹
second order rate constant of activation by thrombin (M^-1 s^-1 × 10^-6) [2]: 2.1e-06 M⁻¹ s⁻¹
second order rate constant of activation by thrombin (M^-1 s^-1 × 10^-6) [3]: 3e-06 M⁻¹ s⁻¹
Substance: thrombin (enzyme)
